Experimental data as given in publication PMC7914964, “Ca^2+-Dependent Protein Kinase 6 Enhances KAT2 Shaker Channel Activity in Arabidopsis thaliana” (International Journal of Molecular Sciences, 2021).

Target: KAT2-CFP (Arabidopsis thaliana, UniProt Q38849 1-697)
Test: cell-based or functional assay

Chain of KAT2-CFP (Q38849 whole entry): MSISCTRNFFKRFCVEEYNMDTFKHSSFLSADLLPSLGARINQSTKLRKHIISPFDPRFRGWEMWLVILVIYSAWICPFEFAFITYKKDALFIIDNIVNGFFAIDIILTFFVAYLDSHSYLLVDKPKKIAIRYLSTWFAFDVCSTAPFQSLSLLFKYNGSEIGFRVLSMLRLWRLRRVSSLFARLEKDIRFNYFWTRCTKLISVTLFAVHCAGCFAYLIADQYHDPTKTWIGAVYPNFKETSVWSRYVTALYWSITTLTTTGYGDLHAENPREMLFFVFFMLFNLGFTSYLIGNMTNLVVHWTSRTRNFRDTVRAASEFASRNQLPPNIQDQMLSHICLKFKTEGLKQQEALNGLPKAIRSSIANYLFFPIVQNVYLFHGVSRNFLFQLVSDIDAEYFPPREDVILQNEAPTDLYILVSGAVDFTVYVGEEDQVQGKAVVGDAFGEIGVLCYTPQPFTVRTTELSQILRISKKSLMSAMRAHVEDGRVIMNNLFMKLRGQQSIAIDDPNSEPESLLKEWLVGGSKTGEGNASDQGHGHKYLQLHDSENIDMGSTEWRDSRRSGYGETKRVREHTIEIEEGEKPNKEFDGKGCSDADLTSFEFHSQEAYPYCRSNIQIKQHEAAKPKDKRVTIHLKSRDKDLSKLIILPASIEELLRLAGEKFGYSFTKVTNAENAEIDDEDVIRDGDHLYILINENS

B1: AtCPK6-YFP (enzyme, Arabidopsis thaliana, UniProt Q38872 1-544, looked up)
chain: MGNSCRGSFKDKIYEGNHSRPEENSKSTTTTVSSVHSPTTDQDFSKQNTNPALVIPVKEPIMRRNVDNQSYYVLGHKTPNIRDLYTLSRKLGQGQFGTTYLCTDIATGVDYACKSISKRKLISKEDVEDVRREIQIMHHLAGHKNIVTIKGAYEDPLYVHIVMELCAGGELFDRIIHRGHYSERKAAELTKIIVGVVEACHSLGVMHRDLKPENFLLVNKDDDFSLKAIDFGLSVFFKPGQIFKDVVGSPYYVAPEVLLKHYGPEADVWTAGVILYILLSGVPPFWAETQQGIFDAVLKGYIDFDTDPWPVISDSAKDLIRKMLCSSPSERLTAHEVLRHPWICENGVAPDRALDPAVLSRLKQFSAMNKLKKMALKVIAESLSEEEIAGLRAMFEAMDTDNSGAITFDELKAGLRRYGSTLKDTEIRDLMEAADVDNSGTIDYSEFIAATIHLNKLEREEHLVSAFQYFDKDGSGYITIDELQQSCIEHGMTDVFLEDIIKEVDQDNDGRIDYEEFVAMMQKGNAGVGRRTMKNSLNISMRDV
KAT2 currents at hyperpolarized potentials (TEVC) in Xenopus laevis oocytes co-expressing KAT2 and AtCPK6, against KAT2 alone: 2 fold
